# Measured values as given in patent US5856161.
# Assays:
# [1] = target: p60-Tumor Necrosis Factor Receptor Associated Kinase (p60TRAK)
# [2] = target: p60-Tumor Necrosis Factor Receptor Associated Kinase (p60TRAK); experiment: U937 lysate depleted with p13^suc1 -agarose or GST beads, supernatant precipitated with GST-p60Δ15, kinase assay with histone H1
# [3] = target: GST-p60Δ5 (Homo sapiens (Human)) (UniProt P19438)
# [4] = target: GST-p60Δ4 (Homo sapiens (Human)) (UniProt P19438)
# p13^suc1 -agarose = target: T1, p13^suc1 -agarose (UniProt P08463); experiment: U937 lysate depleted with p13^suc1 -agarose or GST beads, supernatant precipitated with GST-p60Δ8 or GST-p60Δ15, kinase assay with Rb^110
# T1 sequence: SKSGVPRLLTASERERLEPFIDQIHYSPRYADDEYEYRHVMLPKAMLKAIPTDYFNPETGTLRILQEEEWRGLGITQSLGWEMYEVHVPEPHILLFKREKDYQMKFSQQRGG
substance,measurement,setting,value
p49^WEE1 (from UniProt P30291) (enzyme),histone kinase activity of p60TRAK,[1],> 70%
p13^suc1 -agarose (from UniProt P08463),depletion of p60TRAK activity,[2],50%
p60-Tumor Necrosis Factor Receptor Associated Kinase (p60TRAK) (enzyme),phosphorylation in an in vitro kinase assay,[3],50%
same,phosphorylation in an in vitro kinase assay,[4],50%
p60-Tumor Necrosis Factor Receptor Associated Kinase (p60TRAK),reduction of Rb^110 phosphorylation by p60TRAK after depletion,p13^suc1 -agarose,phosphorylation of the retinoblastoma protein (Rb^110) by p60TRAK after depletion with p13^suc1 -agarose was reduced by greater than 60%
